In data set [1] the target is T1, thrombin (UniProt P00734;P00734 328-363;364-622). Put plainly: PAGE and FAM/BHQ1 fluorescence (release of strand D); Mg2+; indirect read-out; complexes annealed in 1x TAE/Mg2+ buffer, DNA complex about 0.5-0.6 uM; thrombin trigger 2 h at room temperature (cell experiments); pH and Mg2+ concentration n.
The target of data set [2] is T1, thrombin. Briefly: PAGE (release of DGFP); Mg2+; indirect read-out; complexes annealed in 1x TAE/Mg2+ buffer, DNA complex about 0.5-0.6 uM; thrombin trigger 2 h at room temperature (cell experiments); pH and Mg2+ concentration n.
The target of data set [3] is T1, thrombin. Put plainly: PAGE and fluorescence (release of strand D); Mg2+; indirect read-out; complexes annealed in 1x TAE/Mg2+ buffer, DNA complex about 0.5-0.6 uM; thrombin trigger 2 h at room temperature (cell experiments); pH and Mg2+ concentration n.

B1: complex CDAB (15Apt and 29Apt thrombin aptamers on B and A) (structured_DNA)
DNA 1: AATGGTCCTATGATTCCGTTTTTTTTTTTTGTCACTAGCTACTAGGTAGCTAGTGACGTTATTTTTTTTATGAGAGAGAGTGTGTCC
DNA 2: TAACGTCACTAGCTACCTTTTTTTTTTTTTTTTTTTTTTTTTTTTTTTTTTTTTTTT
DNA 3: GGACACACTCTCTCTCATTTTAGTCCGTGGTAGGGCAGGTTGGGGTGACT
DNA 4: GGTTGGTGTGGTTGGTTTCGGAATCATAGGACCATT
For the molecule B1, the binding result with thrombin [1] is listed as “binds”.

B2: complex-G C3DGFPAB (T1 3 nt, T2 12 nt) (structured_DNA)
DNA 1: AATGGTCCTATGATTCCGTTTTTTTTTTTTTGCACGCTGCCGTTACGGCAGCGTGCAGCTCTTTTTTTTATGAGAGAGAGTGTGTCC
DNA 2: GAGCTGCACGCTGCCGTCTTTTTTTTTTTTTTTTTTTTTTTTTTTTTTTTTTTTTTTTT
DNA 3: GGACACACTCTCTCTCATTTTAGTCCGTGGTAGGGCAGGTTGGGGTGACT
DNA 4: GGTTGGTGTGGTTGGTTTCGGAATCATAGGACCATT
Take B2: the binding result with thrombin [2] is “binds”.

B3: single-trigger-site complex with E-29apt (structured_DNA)
DNA 1: AATGGTCCTATGATTCCGTTTTTTTTTTTTGTCACTAGCTACTAGGTAGCTAGTGACGTTATTTTTTTTATGAGAGAGAGTGTGTCC
DNA 2: TAACGTCACTAGCTACCTTTTTTTTTTTTTTTTTTTTTTTTTTTTTTTTTTTTTTTT
DNA 3: GGACACACTCTCTCTCATTTTAGTCCGTGGTAGGGCAGGTTGGGGTGACTTTTCGGAATCATAGGACCATT
On to B3, for which, in the data set with thrombin [3], the binding result is listed as “binds”.

(Values after PMC10425332, “Programming conformational cooperativity to regulate allosteric protein-oligonucleotide signal transduction”.)
